Where two headings read alike, the source gives them in different places.
B1: archaeal elongation factor 2 (aEF2) of Pyrococcus furiosus (natural protein, UniProt P61877 1-732, looked up)
chain: MGRREEMIAKIKELMLQPERIRNIGIAAHIDHGKTTLSDNLLAGAGMISEELAGKQLVLDFDEQEQARGITINAANVSMVHNYEGKDYLINLIDTPGHVDFGGDVTRAMRAIDGVIIVVDAVEGVMPQTETVVRQALREYVKPVLFINKVDRLIRELKLTPQQMMERFSKIIMDVNRLIQRYAPEEYKKKWMVRVEDGSVAFGSAYYNWALSVPFMQRTGVKFNEIIDLTLKGDNKTLRQRAPLHVVVLDMVVRHLPSPIEAQKYRIPHLWQGDINSKIGQAMLNCDPKGKMVMVITKIIIDKHAGEVATGRVWSGTVRSGQEVYLINSKRKGRIQQVGIYMGPERINMEAVPAGNIVAVTGLRDAMAGETVAEEQIEPFEALHYVSEPVVTVAIEAKNVKDLPRLIEALRQLAKEDPTLHVKIDEETGQHLLSGMGELHLEVKLYKLQKDWGIEVDVSEPIVVYRESITKPSPIVEGKSPNKHNRFYVVVEPMPDEIYQAIKEGIIPEGRVKDPKAVAKKLAELGMDYDIARGVVDIYNGNMFLDNTKGIQYLNEVMDLLIDGFHQAMDEGPLAKEPVMKVIVRLVDAQVHEDNVHRGPAQIYPAIRTAIHCAMMKAGPVLYEPYQKVIINIPYEYMGAVSREISQRRGQLIDMRQEGEVMTIIAEAPVAEMFGFAGAIRSATSGRALWSTEHAGFKRVPNELAQQIIRQIRQRKGLDPNPPTEKDVCPLF
B2: archaeal elongation factor 1A (aEF1A) of Pyrococcus furiosus (natural protein, UniProt Q8U152 1-428, looked up)
chain: MPKDKPHVNIVFIGHVDHGKSTTIGRLLYDTGNIPEQIIKKFEEMGEKGKSFKFAWVMDRLKEERERGITIDVAHTKFETPHRYITIIDAPGHRDFVKNMITGASQADAAVLVVAATDGVMPQTKEHAFLARTLGIKHIIVAINKMDMVNYNQKRFEEVKAQVEKLLKMLGYKDFPVIPISAWEGENVVKKSDKMPWYNGPTLIEALDQIPEPEKPVDKPLRIPIQDVYSIKGVGTVPVGRVETGKLRVGEVVIFEPASTIFHKPIQGEVKSIEMHHEPLEEALPGDNIGFNVRGVSKNDIKRGDVAGHTTNPPTVVRTKDTFKAQIIVLNHPTAITVGYSPVLHAHTAQVPVRFEQLLAKLDPKTGNIVEENPQFIKTGDAAIVILRPMKPVVLEPVKEIPQLGRFAIRDMGMTIAAGMVISIQRGE

Columns and labels:
Assay in all cases: high-speed atomic force microscopy
[1] = biological target: T1, archaeal ribosomal P-stalk complex aP0•(aP1•aP1)3 (Pyrococcus horikoshii, UniProt O74109 1-342; O57705 1-108)
T1 sequence (looked up) 1: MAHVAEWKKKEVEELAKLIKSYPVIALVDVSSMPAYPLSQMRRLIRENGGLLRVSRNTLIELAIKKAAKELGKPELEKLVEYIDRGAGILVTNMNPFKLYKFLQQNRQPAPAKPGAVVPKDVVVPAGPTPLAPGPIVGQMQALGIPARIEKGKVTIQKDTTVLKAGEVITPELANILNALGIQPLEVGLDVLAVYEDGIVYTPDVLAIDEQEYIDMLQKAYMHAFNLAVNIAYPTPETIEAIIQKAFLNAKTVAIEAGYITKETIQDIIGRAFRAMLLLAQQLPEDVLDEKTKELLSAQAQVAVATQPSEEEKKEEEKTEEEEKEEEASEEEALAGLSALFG
T1 sequence (looked up) 2: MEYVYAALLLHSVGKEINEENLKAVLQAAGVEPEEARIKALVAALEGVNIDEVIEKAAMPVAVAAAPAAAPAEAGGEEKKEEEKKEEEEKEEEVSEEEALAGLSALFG

[2] = biological target: T1, archaeal ribosomal P-stalk complex …; remark: listed apart in the source
[3] = biological target: T1, archaeal ribosomal P-stalk complex …; remark: listed apart in the source
[4] = biological target: T1, archaeal ribosomal P-stalk complex …; remark: listed apart in the source
[5] = biological target: T1, archaeal ribosomal P-stalk complex …; remark: listed apart in the source

| stoichiometry N [1] | fold distribution near the P-stalk relative to the opposite control area [2] | fold distribution near the P-stalk relative to the opposite control area [3] | fold distribution near the P-stalk relative to the opposite control area [4] | fold distribution near the P-stalk relative to the opposite control area [5] | Binder |
| --- | --- | --- | --- | --- | --- |
| ≤ 7 aEF2 molecules per P-stalk | 6.6 fold | ~4.3 fold |  |  | B1 |
|  |  |  | 2.6 fold | 4.2 fold | B2 |

— publication doi:10.1101/2020.06.30.176701 (bioRxiv, 2020)
